Results published in the supplement of paper PMC10065799, “High-throughput profiling of sequence recognition by tyrosine kinases and SH2 domains using bacterial peptide display” (eLife, 2023).
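For SH2 binding enrichment of the phosphorylated peptide, bacterial display in this document: peptide library displayed on the E. coli surface as eCPX fusions, selected cells deep-sequenced, score is each peptide's frequency after selection divided by its frequency in the input.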
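For phosphorylation enrichment, bacterial display in this document: 11-residue human phosphosite peptides and single-mutation variants displayed on the E. coli surface, counted by deep sequencing, each peptide's frequency after selection divided by its frequency in the unselected input library; frequency after pTyr selection over input frequency; kinase dosed for 20-30% of maximal phosphorylation in three min.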

Each sequence was assayed on c-Src (assay: phosphorylation enrichment, bacterial display (enrichment ratio); higher = better substrate or ligand; peptides without Tyr show the background).
With CNPRRYPVLMS [OR2T1_Y182_L180R] the phosphorylation enrichment was 0.494.
Sequence ERRLIYTSDPK [VPS13D_Y864] has a phosphorylation enrichment of 0.437.
Sequence EDKSIYRRGAC [PRKCI_Y125_R130C] has a phosphorylation enrichment of 0.315.
Sequence CEHRGFLFLAI [TEK_Y897_Y897F_YF] has a phosphorylation enrichment of 0.506.
In the case of PLKYLYPNIDK [STAT1_Y668], the phosphorylation enrichment is reported as 0.461.
GFITSYREEEQ showed a phosphorylation enrichment of 0.48.
With AIMSFYAALID [RYR1_Y2426] the phosphorylation enrichment was 0.513.
FATAGYGSLEA [EPHA10_Y959_A956T] showed a phosphorylation enrichment of 0.637.
For RRNNSYTCFTA [SLC20A2_Y386_YF], the phosphorylation enrichment was 1.69.
Sequence TLQRMYGCDVG [HLA-B_Y123_S121R] has a phosphorylation enrichment of 0.554.
QNVADYMRFLM [RPL5_Y207_YF] showed a phosphorylation enrichment of 1.64.
Work on MKALGYFAVVK [OPA1_Y498_T503K] yielded a phosphorylation enrichment of 0.397.
In the case of TAGFIYEKWEI [TEC_Y360_S359I], the phosphorylation enrichment is reported as 4.11.
In the case of VMAALYGRLFE [BTD_Y536_T532M_YF], the phosphorylation enrichment is reported as 6.1.
In the case of GRQWNYVASML [KLHL4_Y552_S557L], the phosphorylation enrichment is reported as 0.391.
RLLVVYPWTQK [HBG1_Y36_R41K] gave a phosphorylation enrichment of 0.388.
Work on SVMAEYGLFRA [VSX2_Y219_G223R_YF] yielded a phosphorylation enrichment of 6.04.
VVKTVYSLQPP [KNSTRN_Y87] gave a phosphorylation enrichment of 2.46.
With QPTPGYEVGQR [TSC2_Y1788_E1783Q] the phosphorylation enrichment was 0.329.
For QYNPEYVQQAS [LRRC7_Y1058_H1054Y], the phosphorylation enrichment was 0.508.
In the case of TTKAKYKTPIF [PLD2_Y573_T577I_YF], the phosphorylation enrichment is reported as 0.434.
SSSGAYGGGYG [KRT19_Y61] showed a phosphorylation enrichment of 0.377.
For KMKGDYYRSLA [YWHAG_Y130_Y133S], the phosphorylation enrichment was 0.389.
In the case of EKKKFYDAKIE [CASP5_Y104_T106A_YF], the phosphorylation enrichment is reported as 0.466.
EKKDLYKAGEQ [CFH_Y1008_V1007L] showed a phosphorylation enrichment of 0.369.
TISPFYCQSLF [CRYAA_Y48_R49C_YF] was tested, and the phosphorylation enrichment was 0.516.
SVTCTYSLALN [TP53_Y126_P128L] gave a phosphorylation enrichment of 1.65.
GARGRYVMGGP [TNK1_Y277] was tested, and the phosphorylation enrichment was 0.421.
For FGVTLYPNSGE [MEP1A_Y472_R476G], the phosphorylation enrichment was 0.473.
DVQNAYDSNHC [ZFYVE16_Y36] showed a phosphorylation enrichment of 0.495.
ANRNVYEVEPT [MEGF10_Y1075] showed a phosphorylation enrichment of 4.
Work on PATFTYDEFKK [COL8A2_Y648_YF] yielded a phosphorylation enrichment of 1.68.
In the case of LHRAHYDLCHT [AHSG_Y314_R317C], the phosphorylation enrichment is reported as 0.495.

Each sequence was assayed against Grb2 SH2 (UniProt P62993) (assay: SH2 binding enrichment of the phosphorylated peptide, bacterial display (enrichment ratio); higher = better substrate or ligand; peptides without Tyr show the background).
Grb2 SH2, sequence (P62993 whole entry, looked up): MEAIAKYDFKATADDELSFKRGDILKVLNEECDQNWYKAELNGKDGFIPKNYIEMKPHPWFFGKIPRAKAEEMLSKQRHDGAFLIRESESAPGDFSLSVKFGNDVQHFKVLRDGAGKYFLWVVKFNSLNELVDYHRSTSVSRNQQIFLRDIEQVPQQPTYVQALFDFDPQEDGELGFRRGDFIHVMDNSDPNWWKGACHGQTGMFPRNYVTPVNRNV
CNPRRYPVLMS [OR2T1_Y182_L180R] gave an SH2 binding enrichment of 1.1.
In the case of ERRLIYTSDPK [VPS13D_Y864], the SH2 binding enrichment is reported as 0.872.
EDKSIYRRGAC [PRKCI_Y125_R130C] showed an SH2 binding enrichment of 0.941.
For CEHRGFLFLAI [TEK_Y897_Y897F_YF], the SH2 binding enrichment was 1.47.
With PLKYLYPNIDK [STAT1_Y668] the SH2 binding enrichment was 0.785.
With GFITSYREEEQ the SH2 binding enrichment was 0.681.
Work on AIMSFYAALID [RYR1_Y2426] yielded an SH2 binding enrichment of 0.978.
For FATAGYGSLEA [EPHA10_Y959_A956T], the SH2 binding enrichment was 0.901.
RRNNSYTCFTA [SLC20A2_Y386_YF] was tested, and the SH2 binding enrichment was 0.7.
In the case of TLQRMYGCDVG [HLA-B_Y123_S121R], the SH2 binding enrichment is reported as 0.851.
For QNVADYMRFLM [RPL5_Y207_YF], the SH2 binding enrichment was 0.894.
MKALGYFAVVK [OPA1_Y498_T503K] gave an SH2 binding enrichment of 0.792.
Sequence TAGFIYEKWEI [TEC_Y360_S359I] has an SH2 binding enrichment of 0.794.
Sequence VMAALYGRLFE [BTD_Y536_T532M_YF] has an SH2 binding enrichment of 1.59.
GRQWNYVASML [KLHL4_Y552_S557L] gave an SH2 binding enrichment of 1.25.
RLLVVYPWTQK [HBG1_Y36_R41K] gave an SH2 binding enrichment of 2.31.
In the case of SVMAEYGLFRA [VSX2_Y219_G223R_YF], the SH2 binding enrichment is reported as 0.773.
Sequence VVKTVYSLQPP [KNSTRN_Y87] has an SH2 binding enrichment of 0.803.
With QPTPGYEVGQR [TSC2_Y1788_E1783Q] the SH2 binding enrichment was 1.07.
In the case of QYNPEYVQQAS [LRRC7_Y1058_H1054Y], the SH2 binding enrichment is reported as 1.06.
TTKAKYKTPIF [PLD2_Y573_T577I_YF] was tested, and the SH2 binding enrichment was 1.06.
In the case of SSSGAYGGGYG [KRT19_Y61], the SH2 binding enrichment is reported as 0.861.
KMKGDYYRSLA [YWHAG_Y130_Y133S] gave an SH2 binding enrichment of 0.888.
Work on EKKKFYDAKIE [CASP5_Y104_T106A_YF] yielded an SH2 binding enrichment of 0.686.
Sequence EKKDLYKAGEQ [CFH_Y1008_V1007L] has an SH2 binding enrichment of 0.794.
For TISPFYCQSLF [CRYAA_Y48_R49C_YF], the SH2 binding enrichment was 0.912.
Work on SVTCTYSLALN [TP53_Y126_P128L] yielded an SH2 binding enrichment of 0.956.
In the case of GARGRYVMGGP [TNK1_Y277], the SH2 binding enrichment is reported as 0.512.
Work on FGVTLYPNSGE [MEP1A_Y472_R476G] yielded an SH2 binding enrichment of 0.9.
DVQNAYDSNHC [ZFYVE16_Y36] was tested, and the SH2 binding enrichment was 1.06.
ANRNVYEVEPT [MEGF10_Y1075] showed an SH2 binding enrichment of 0.818.
With PATFTYDEFKK [COL8A2_Y648_YF] the SH2 binding enrichment was 1.03.
With LHRAHYDLCHT [AHSG_Y314_R317C] the SH2 binding enrichment was 1.13.

These sequences were tested against SHP2-C SH2 in the same assay as above.
Sequence CNPRRYPVLMS [OR2T1_Y182_L180R] has an SH2 binding enrichment of 0.954.
ERRLIYTSDPK [VPS13D_Y864] gave an SH2 binding enrichment of 0.663.
EDKSIYRRGAC [PRKCI_Y125_R130C] was tested, and the SH2 binding enrichment was 0.831.
CEHRGFLFLAI [TEK_Y897_Y897F_YF] was tested, and the SH2 binding enrichment was 0.996.
PLKYLYPNIDK [STAT1_Y668] gave an SH2 binding enrichment of 0.735.
For GFITSYREEEQ, the SH2 binding enrichment was 0.722.
For AIMSFYAALID [RYR1_Y2426], the SH2 binding enrichment was 1.47.
FATAGYGSLEA [EPHA10_Y959_A956T] showed an SH2 binding enrichment of 0.933.
RRNNSYTCFTA [SLC20A2_Y386_YF] gave an SH2 binding enrichment of 0.509.
TLQRMYGCDVG [HLA-B_Y123_S121R] gave an SH2 binding enrichment of 0.454.
Sequence QNVADYMRFLM [RPL5_Y207_YF] has an SH2 binding enrichment of 0.842.
Sequence MKALGYFAVVK [OPA1_Y498_T503K] has an SH2 binding enrichment of 0.913.
TAGFIYEKWEI [TEC_Y360_S359I] was tested, and the SH2 binding enrichment was 1.24.
VMAALYGRLFE [BTD_Y536_T532M_YF] was tested, and the SH2 binding enrichment was 1.44.
Work on GRQWNYVASML [KLHL4_Y552_S557L] yielded an SH2 binding enrichment of 1.33.
Sequence RLLVVYPWTQK [HBG1_Y36_R41K] has an SH2 binding enrichment of 2.19.
SVMAEYGLFRA [VSX2_Y219_G223R_YF] showed an SH2 binding enrichment of 0.627.
VVKTVYSLQPP [KNSTRN_Y87] gave an SH2 binding enrichment of 1.03.
Work on QPTPGYEVGQR [TSC2_Y1788_E1783Q] yielded an SH2 binding enrichment of 0.666.
QYNPEYVQQAS [LRRC7_Y1058_H1054Y] showed an SH2 binding enrichment of 1.47.
TTKAKYKTPIF [PLD2_Y573_T577I_YF] was tested, and the SH2 binding enrichment was 1.14.
Work on SSSGAYGGGYG [KRT19_Y61] yielded an SH2 binding enrichment of 0.639.
Work on KMKGDYYRSLA [YWHAG_Y130_Y133S] yielded an SH2 binding enrichment of 0.87.
EKKKFYDAKIE [CASP5_Y104_T106A_YF] showed an SH2 binding enrichment of 0.783.
In the case of EKKDLYKAGEQ [CFH_Y1008_V1007L], the SH2 binding enrichment is reported as 0.655.
With TISPFYCQSLF [CRYAA_Y48_R49C_YF] the SH2 binding enrichment was 0.707.
With SVTCTYSLALN [TP53_Y126_P128L] the SH2 binding enrichment was 0.781.
With GARGRYVMGGP [TNK1_Y277] the SH2 binding enrichment was 0.548.
FGVTLYPNSGE [MEP1A_Y472_R476G] was tested, and the SH2 binding enrichment was 0.851.
DVQNAYDSNHC [ZFYVE16_Y36] showed an SH2 binding enrichment of 0.95.
Work on ANRNVYEVEPT [MEGF10_Y1075] yielded an SH2 binding enrichment of 1.08.
For PATFTYDEFKK [COL8A2_Y648_YF], the SH2 binding enrichment was 0.53.
With LHRAHYDLCHT [AHSG_Y314_R317C] the SH2 binding enrichment was 0.935.

The sequences below were run against c-Src SH2 in the same assay as above.
In the case of CNPRRYPVLMS [OR2T1_Y182_L180R], the SH2 binding enrichment is reported as 1.18.
ERRLIYTSDPK [VPS13D_Y864] showed an SH2 binding enrichment of 0.507.
Sequence EDKSIYRRGAC [PRKCI_Y125_R130C] has an SH2 binding enrichment of 0.514.
Sequence CEHRGFLFLAI [TEK_Y897_Y897F_YF] has an SH2 binding enrichment of 0.759.
PLKYLYPNIDK [STAT1_Y668] gave an SH2 binding enrichment of 0.825.
Work on GFITSYREEEQ yielded an SH2 binding enrichment of 0.502.
AIMSFYAALID [RYR1_Y2426] gave an SH2 binding enrichment of 0.778.
In the case of FATAGYGSLEA [EPHA10_Y959_A956T], the SH2 binding enrichment is reported as 0.564.
RRNNSYTCFTA [SLC20A2_Y386_YF] was tested, and the SH2 binding enrichment was 0.695.
Sequence TLQRMYGCDVG [HLA-B_Y123_S121R] has an SH2 binding enrichment of 0.493.
In the case of QNVADYMRFLM [RPL5_Y207_YF], the SH2 binding enrichment is reported as 0.62.
MKALGYFAVVK [OPA1_Y498_T503K] gave an SH2 binding enrichment of 0.595.
TAGFIYEKWEI [TEC_Y360_S359I] gave an SH2 binding enrichment of 0.761.
In the case of VMAALYGRLFE [BTD_Y536_T532M_YF], the SH2 binding enrichment is reported as 1.18.
GRQWNYVASML [KLHL4_Y552_S557L] showed an SH2 binding enrichment of 0.945.
Work on RLLVVYPWTQK [HBG1_Y36_R41K] yielded an SH2 binding enrichment of 1.76.
SVMAEYGLFRA [VSX2_Y219_G223R_YF] was tested, and the SH2 binding enrichment was 0.444.
VVKTVYSLQPP [KNSTRN_Y87] was tested, and the SH2 binding enrichment was 0.441.
In the case of QPTPGYEVGQR [TSC2_Y1788_E1783Q], the SH2 binding enrichment is reported as 0.572.
For QYNPEYVQQAS [LRRC7_Y1058_H1054Y], the SH2 binding enrichment was 0.431.
Work on TTKAKYKTPIF [PLD2_Y573_T577I_YF] yielded an SH2 binding enrichment of 0.764.
In the case of SSSGAYGGGYG [KRT19_Y61], the SH2 binding enrichment is reported as 0.506.
Work on KMKGDYYRSLA [YWHAG_Y130_Y133S] yielded an SH2 binding enrichment of 0.891.
For EKKKFYDAKIE [CASP5_Y104_T106A_YF], the SH2 binding enrichment was 0.453.
EKKDLYKAGEQ [CFH_Y1008_V1007L] showed an SH2 binding enrichment of 0.46.
TISPFYCQSLF [CRYAA_Y48_R49C_YF] showed an SH2 binding enrichment of 0.632.
Sequence SVTCTYSLALN [TP53_Y126_P128L] has an SH2 binding enrichment of 0.503.
Work on GARGRYVMGGP [TNK1_Y277] yielded an SH2 binding enrichment of 0.435.
Work on FGVTLYPNSGE [MEP1A_Y472_R476G] yielded an SH2 binding enrichment of 0.588.
DVQNAYDSNHC [ZFYVE16_Y36] was tested, and the SH2 binding enrichment was 0.644.
Work on ANRNVYEVEPT [MEGF10_Y1075] yielded an SH2 binding enrichment of 1.3.
PATFTYDEFKK [COL8A2_Y648_YF] gave an SH2 binding enrichment of 0.791.
LHRAHYDLCHT [AHSG_Y314_R317C] was tested, and the SH2 binding enrichment was 2.25.
